# Test results as given in the supplement of paper PMC12042874.
# ± gives the uncertainty stated by the source.
# Experiment: amyloid nucleation score (Sup35N fusion, yeast selection) (log enrichment); library NNK1; higher = more nucleation; inactive = no reads after selection
# Outline: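 The nucleation score is a DiMSum log enrichment of output over input reads, centred on the mode score of non-aggregating sequences. Sequences under 100 input reads were excluded, and reads came from Illumina sequencing of plasmid inserts. Psi-negative yeast expressing Sup35N fused to peptides of 20 random codons were induced with 100 μM copper sulfate for 24 hours and grown 7 days at 30°C on medium lacking adenine and uracil. Random libraries had three technical output replicates.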
row,Substance,amyloid nucleation score
1,RTGLY,0.108 ± 0.33
2,MWTNWDVLPELDGTPRALLW,-0.501 ± 0.99
3,TWNNKFRPLVEHGYSAS,-0.526 ± 0.85
4,TFMNRLPMNLDLLIGLTCNL,0.492 ± 0.38
5,VTTYLG,-0.499 ± 0.74
6,GQAWCTLTCRGTGPSQLGWV,-0.508 ± 0.57
7,TLIGFWPTRSFSSAVRYNPN,-0.116 ± 1
8,SFVVHVICGHVCSWSFSVWF,0.178 ± 0.33
9,RCGRAINGVQCVHWFVMSEG,0.429 ± 0.58
10,HLFTGNAYRGTRMGKLVGSH,0.328 ± 0.41
11,IFYLRFPVLLVISPRCALYI,0.623 ± 0.75
12,TTSRAWFYL,-0.353 ± 1
13,RMWRYASCHYI,1.73 ± 0.76
14,VVSSRSIMGTVRMNEKVVAT,-0.563 ± 0.46
15,CFEVHTHSESLL,-0.662 ± 0.72
16,VRYMWFAAGTREVTWSAFFM,-0.014 ± 0.32
17,YYNRFILRSWEGSSMGLWSC,-0.582 ± 0.36
18,YMVFVVVSI,0.946 ± 0.24
19,YFSWLFPFIDLSRVSASMPT,2.69 ± 0.2
20,YLCRLDLTTDRKSTGLLCGC,0.022 ± 0.34
21,GSIERFTFISVYYRLTPLSG,-0.035 ± 0.54
22,CAAGARSSGEMAYIARMKAG,0.482 ± 0.69

row,Substance,amyloid nucleation score
1,VVTRWLASNNDGGIESLLIK,0.132 ± 0.33
2,VPTSSFGGFVYVGVRVMCS,-0.487 ± 0.8
3,MMLLYCRLIWSPISDRICQF,-0.498 ± 0.42
4,NSLCSP,-1.31 ± 1.9
5,IVDCYSLDRYRVLLWSS,0.566 ± 0.36
6,LGCLQLITSERGPDYYKVAT,0.218 ± 0.41
7,FIWIGRKRRGGICCDEWKYG,0.196 ± 1.6
8,VLYIGYYCQKSMEVLVTRSR,1.06 ± 0.69
9,WRGGKRHVAIFSISYSGTN,0.9 ± 0.57
10,IYAYAIDSFRSLVFFVFMFG,inactive
11,DFEDTYSWKVTGEGATRKRW,0.166 ± 0.49
12,TFSWYRLRSVMGLVGNAAMI,0.31 ± 0.61
13,SLKVTAPTQMGQCVVGGVYH,-0.279 ± 0.88
14,WSLNERQNMLHLHRLTASLG,-0.088 ± 0.88
15,PSLASCSRL,0.28 ± 0.41
16,VDISIVWDVPHQVLTGGFY,-0.531 ± 0.29
17,SIYHYCRDIRDCRMSRLELG,0.572 ± 0.33
18,GLSTMQCVNICFWSYVTW,1.37 ± 0.26
19,TYWNVLNAVGQALPSIYGIG,0.955 ± 0.63
20,GSWNALRLRCVNVVRTGVMN,-0.496 ± 0.59
21,VVMYRALTNHN,0.949 ± 0.59
22,DVYVACTSFDLELCICVMRL,0.237 ± 0.7

row,Substance,amyloid nucleation score
1,VVSMSQEVEAPRAPHMAAFK,0.25 ± 0.53
2,RDPRAMQLKSRLGMWKNQWY,0.91 ± 0.78
3,VGFYWNGWTTKGCWDNSWVL,0.382 ± 0.55
4,MYETWFTFRWKLTDI,-0.007 ± 0.39
5,GIWIRVSLAMRVTTSRRLGN,2.57 ± 0.17
6,LREVGQNLVGMSV,inactive
7,IYGAAFVAEGWTPTLSVGDK,0.141 ± 0.39
8,VYFGRISLWLNMH,-0.449 ± 0.59
9,MSLNRDNDYSKLLFGSKVSQ,0.477 ± 0.43
10,RLCASYSKYETFVADARRDG,0.413 ± 0.19
11,SEWGSQSSGAGSFTMV,-1.35 ± 2.4
12,KNDVASLLLGSMLKANSTCC,0.413 ± 1.4
13,RGVYNDSMERMPDNCSFYNK,-0.641 ± 1.5
14,DWHGLTKVMITW,3.31 ± 0.11
15,AGVAPYWVPTSEQDQLRRGT,-0.721 ± 1.9
16,LVGGCPLTRGRGYGRPRNGG,-1.9 ± 2.7
17,DPSPLR,-0.827 ± 2.4
18,SCNDTI,-0.172 ± 1.5
19,YFWMIPMTGEVHNCPDLAPK,0.386 ± 0.33
20,IAAYLVVDILPGSI,-0.036 ± 0.6
21,DKNVSRFIPNEMLCLKPWAP,1.19 ± 0.9
22,PILFYDQSFLILWQINGAGG,inactive

row,Substance,amyloid nucleation score
1,THWLNRTGCVRTHPVQSGKE,-1.09 ± 1
2,TCRDYCASVSEEQIWLMVYR,0.297 ± 0.67
3,GLGTAYIGLCWHTIWHAAGV,1.46 ± 0.16
4,VWRHGHNELRIRYAVSLYM,0.608 ± 0.46
5,KNKGCGGKAEYTLAPIEISM,0.364 ± 0.55
6,LVRAIIANCAYFCQFRFSLG,0.944 ± 0.69
7,GWRSGVWLGSV,-1.32 ± 0.77
8,IMYNCRYWSGVTLHYSVVQH,1.89 ± 0.16
9,VDPYQVNYLNKLVTENYRVS,0.097 ± 0.33
10,TVRLTRTRV,-0.474 ± 0.86
11,HQTEEISKSSFFQCNMVQCW,2.94 ± 0.071
12,DSSRNGKF,-0.563 ± 0.64
13,HILSHFVSCSRYL,-0.09 ± 1.4
14,LTARSFKCF,inactive
15,PFCSGALLARLG,0.047 ± 0.77
16,GGFFALTYVWSHVHRWS,inactive
17,NATNLENQKFTEDALKSPGW,-0.037 ± 0.71
18,TKPMIMSTFSEFCIPCTMRL,0.182 ± 0.55
19,AFPQFLGCLVIFQSHGRRER,8.1 ± 0.064
20,RFRKHRFVVLLCYWCLVFRE,0.766 ± 1.2
